In patent US8525237:

Columns and labels:
[1] = target: M13 bacteriophage incorporated into PEDOT nanowires (M13 bacteriophage); assay: electrical resistance of virus-PEDOT nanowire array in PBF, 99 nM antibody
[2] = target: M13 bacteriophage incorporated into PEDOT nanowires (M13 bacteriophage); assay: electrical resistance of virus-PEDOT nanowire array in PBF

Anti-M13 antibody (p-Ab, GE Healthcare Life Sciences)
increase in the resistance (ΔR/R0) at 99 nM antibody [1]: 40%
limit of detection [2]: 20 nM
